# Data reported in publication PMC10841013.
# Molecular target: T1, rArgR (Streptococcus suis CZ130302) (UniProt Q3C167)
# T1 sequence: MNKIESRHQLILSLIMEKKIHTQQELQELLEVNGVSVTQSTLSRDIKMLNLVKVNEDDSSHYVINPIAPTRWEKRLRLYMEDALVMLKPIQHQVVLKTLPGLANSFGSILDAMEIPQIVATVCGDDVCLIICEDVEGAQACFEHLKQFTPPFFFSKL
# Assay: EMSA
sequence,measurement,value
TGGATGGTTTGACATGATCTGTCCTCCTTGTAGATTTATACATGATGGGAAACGAGGAGGACCGTACGCTTTCCTGCCTCTCATTTCCTCTTTACATCCATAGTTTAACAGAGCAAAAAAACAAAAACTTGAAAACGCTCGCATTTATGTTGAGAAATTCTTCACATTTTCAACCTTATTTATAAATAATTATCGATTATATCGCCTATATTATGCATAATTCTTTCTATTATATCATTATGTGAATTTT (double strand) [arcA promoter 250 bp],binding,binds
